Source: US20240036044A1

Target: recombinant SARS-CoV-2 Spike protein antigen (Z03501, Genscript) (SARS-CoV-2) (UniProt P0DTC2)

Substance: Monoclonal antibody against the SARS-CoV-2 Spike protein (A02038, Genscript)
- Kd: 2.39 nM
- koff: 0.000603 s⁻¹
- kon: 252000 M⁻¹ s⁻¹
